{"source": "patent US20220364055A1", "about": "(Novartis, published 2022)", "target": "T1, BCMA (TNFRSF17) (human, UniProt Q02223 1-184, limits assumed)", "T1 construct": "Member of a commercial human plasma membrane protein array; the construct is not described", "T1 sequence (looked up)": "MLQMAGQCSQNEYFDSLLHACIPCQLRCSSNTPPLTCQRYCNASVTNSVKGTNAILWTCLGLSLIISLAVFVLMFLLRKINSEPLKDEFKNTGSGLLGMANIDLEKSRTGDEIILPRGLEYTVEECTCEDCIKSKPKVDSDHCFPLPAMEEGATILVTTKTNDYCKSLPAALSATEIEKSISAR", "assay": "commercial human plasma membrane protein array"}
{"binder": "anti-human BCMA single chain antibody variable fragment (scFv) (PI61) (scFv, also called PI61 scFv) scFv: QVQLQESGGGVVQPGRSLRLSCAASGFTFSSYGMHWVRQAPGKGLEWVAVISYDGSNKYYADSVKGRFTISRDNSKNTLYLQMNSLRAEDTAVYYCGGSGYALHDDYYGLDVWGQGTLVTVSSGGGGSGGGGSGGGGSQSALTQPASVSGSPGQSITISCTGTSSDVGGYNYVSWYQQHPGKAPKLMIYDVSNRPSGVSNRFSGSKSGNTASLTISGLQAEDEADYYCSSYTSSSTLYVFGSGTKVTVL", "values": [{"measurement": "binding result", "result": "binds"}]}
